The numbers were not newly measured in article PMC5245780, which cites them from elsewhere.

By Kd is commonly meant the free concentration of one partner at which half of the binding sites on the other are occupied at equilibrium, for simple one-to-one binding.

For this series, the target named is Hax1 isoform 1 (Rattus norvegicus) (UniProt Q7TSE9).

For the substance Hax1 isoform 1 (from UniProt Q7TSE9), the Kd was 3.8 nM.
